Reference: publication PMC9482650, “Quantitative fragmentomics allow affinity mapping of interactomes” (Nature Communications, 2022)

T1: ARHGAP21, Q5T5U3
T1 sequence (Q5T5U3 45-169, limits assumed, looked up): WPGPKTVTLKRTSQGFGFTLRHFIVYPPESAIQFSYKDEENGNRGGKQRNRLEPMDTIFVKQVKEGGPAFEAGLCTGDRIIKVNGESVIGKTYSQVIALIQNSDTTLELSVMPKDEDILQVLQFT

T2: DFNB31_2, Q9P202
T2 sequence (Q9P202 274-371, limits assumed, looked up): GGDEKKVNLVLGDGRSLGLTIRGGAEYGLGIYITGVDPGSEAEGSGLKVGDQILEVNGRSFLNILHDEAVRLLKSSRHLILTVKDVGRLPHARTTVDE

T3: DFNB31_3, Q9P202
T3 sequence (Q9P202 811-907, limits assumed, looked up): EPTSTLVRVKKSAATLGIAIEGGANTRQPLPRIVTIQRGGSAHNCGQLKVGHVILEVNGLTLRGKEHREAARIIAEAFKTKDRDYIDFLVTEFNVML

T4: DLG3_2, Q92796
T4 sequence (Q92796 221-321, limits assumed, looked up): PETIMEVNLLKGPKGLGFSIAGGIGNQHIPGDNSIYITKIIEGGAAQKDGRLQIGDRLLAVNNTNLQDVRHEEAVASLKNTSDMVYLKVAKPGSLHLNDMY

T5: GRIP1_4, Q9Y3R0
T5 sequence (Q9Y3R0 467-571, limits assumed, looked up): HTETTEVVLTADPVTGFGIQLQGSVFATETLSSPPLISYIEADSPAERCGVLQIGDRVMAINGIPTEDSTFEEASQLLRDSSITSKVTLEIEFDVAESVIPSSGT

T6: MPDZ_10, O75970
T6 sequence (O75970 1624-1722, limits assumed, looked up): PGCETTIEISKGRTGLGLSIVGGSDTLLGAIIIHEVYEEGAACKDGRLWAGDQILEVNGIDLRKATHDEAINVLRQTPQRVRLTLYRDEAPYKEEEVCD

T7: MPDZ_12, O75970
T7 sequence (O75970 1857-1958, limits assumed, looked up): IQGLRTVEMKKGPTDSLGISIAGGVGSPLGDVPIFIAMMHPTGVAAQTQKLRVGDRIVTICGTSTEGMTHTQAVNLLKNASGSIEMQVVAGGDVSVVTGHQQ

T8: MPDZ_5, O75970
T8 sequence (O75970 695-796, limits assumed, looked up): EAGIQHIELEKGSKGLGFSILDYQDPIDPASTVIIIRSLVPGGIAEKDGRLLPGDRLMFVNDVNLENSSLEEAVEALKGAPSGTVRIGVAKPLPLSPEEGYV

T9: MPP7, Q5T2T1
T9 sequence (Q5T2T1 134-230, limits assumed, looked up): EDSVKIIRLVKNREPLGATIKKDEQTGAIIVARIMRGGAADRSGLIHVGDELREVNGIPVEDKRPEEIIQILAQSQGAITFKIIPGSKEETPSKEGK

T10: PDZD2_2, O15018
T10 sequence (O15018 329-429, limits assumed, looked up): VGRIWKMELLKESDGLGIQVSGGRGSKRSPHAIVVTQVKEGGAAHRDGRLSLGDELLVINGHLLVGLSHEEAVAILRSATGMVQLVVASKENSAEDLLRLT

T11: PDZRN3_1, Q9UPQ7
T11 sequence (Q9UPQ7 244-349, limits assumed, looked up): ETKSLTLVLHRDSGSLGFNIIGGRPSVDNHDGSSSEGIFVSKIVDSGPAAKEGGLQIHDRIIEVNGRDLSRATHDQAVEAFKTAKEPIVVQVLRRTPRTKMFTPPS

T12: SNTA1, Q13424
T12 sequence (Q13424 82-180, limits assumed, looked up): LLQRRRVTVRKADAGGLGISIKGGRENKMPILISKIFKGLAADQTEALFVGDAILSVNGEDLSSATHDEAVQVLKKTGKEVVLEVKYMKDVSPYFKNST

T13: TX1BP3, O14907
T13 sequence (O14907 10-122, limits assumed, looked up): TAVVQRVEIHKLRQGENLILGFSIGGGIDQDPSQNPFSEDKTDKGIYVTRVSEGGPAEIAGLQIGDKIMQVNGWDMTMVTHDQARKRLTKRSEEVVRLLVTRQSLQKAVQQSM

B1: SLC1A1, P43005 (peptide)
chain: TISFTQTSQF
B2: GRIA2, P42262 (peptide)
chain: NVYGIESVKI

Molecular target: T1, ARHGAP21, Q5T5U3
Experiment: holdup assay
Set-up: key: below the threshold = too weak to quantify, mostly under pKd 3.1 to 4
Details: plain residues with an end cap or a label only (N-terminal biotin on a linker: ado-ado)

pKd | Binder
below the threshold | B1
below the threshold | B2

Molecular target: T2, DFNB31_2, Q9P202
Experiment: holdup assay
Set-up: key: below the threshold = too weak to quantify, mostly under pKd 3.1 to 4
Details: plain residues with an end cap or a label only (N-terminal biotin on a linker: ado-ado)

pKd | Binder
below the threshold | B1
below the threshold | B2

Molecular target: T3, DFNB31_3, Q9P202
Experiment: holdup assay
Set-up: key: below the threshold = too weak to quantify, mostly under pKd 3.1 to 4
Details: plain residues with an end cap or a label only (N-terminal biotin on a linker: ado-ado)

pKd | Binder
3.99 | B1
below the threshold | B2

Molecular target: T4, DLG3_2, Q92796
Experiment: holdup assay
Set-up: key: below the threshold = too weak to quantify, mostly under pKd 3.1 to 4
Details: plain residues with an end cap or a label only (N-terminal biotin on a linker: ado-ado)

pKd | Binder
4.08 | B1
4.19 | B2

Molecular target: FRMPD3, Q5JV73
Experiment: holdup assay
Set-up: key: below the threshold = too weak to quantify, mostly under pKd 3.1 to 4
Details: plain residues with an end cap or a label only (N-terminal biotin on a linker: ado-ado)

FRMPD3, Q5JV73, sequence (Q5JV73 12-100): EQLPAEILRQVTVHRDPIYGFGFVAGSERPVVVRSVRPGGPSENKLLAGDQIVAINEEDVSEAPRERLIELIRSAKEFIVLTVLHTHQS

pKd | Binder
below the threshold | B1
below the threshold | B2

Molecular target: T5, GRIP1_4, Q9Y3R0
Experiment: holdup assay
Set-up: key: below the threshold = too weak to quantify, mostly under pKd 3.1 to 4
Details: plain residues with an end cap or a label only (N-terminal biotin on a linker: ado-ado)

pKd | Binder
below the threshold | B1
below the threshold | B2

Molecular target: GRIP2_6, Q9C0E4
Experiment: holdup assay
Set-up: key: below the threshold = too weak to quantify, mostly under pKd 3.1 to 4
Details: plain residues with an end cap or a label only (N-terminal biotin on a linker: ado-ado)

GRIP2_6, Q9C0E4, sequence (Q9C0E4 648-740): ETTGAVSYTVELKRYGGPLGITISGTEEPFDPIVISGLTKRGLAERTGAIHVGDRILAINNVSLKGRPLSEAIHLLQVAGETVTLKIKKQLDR

pKd | Binder
below the threshold | B1
3.64 | B2

Molecular target: HTRA1, Q92743
Experiment: holdup assay
Set-up: key: below the threshold = too weak to quantify, mostly under pKd 3.1 to 4
Details: plain residues with an end cap or a label only (N-terminal biotin on a linker: ado-ado)

HTRA1, Q92743, sequence (Q92743 360-477): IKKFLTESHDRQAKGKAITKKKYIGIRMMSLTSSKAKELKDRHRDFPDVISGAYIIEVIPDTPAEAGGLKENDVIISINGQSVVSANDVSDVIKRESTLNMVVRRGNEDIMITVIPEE

pKd | Binder
below the threshold | B1
4.25 | B2

Molecular target: IL16_1, Q14005
Experiment: holdup assay
Set-up: key: below the threshold = too weak to quantify, mostly under pKd 3.1 to 4
Details: plain residues with an end cap or a label only (N-terminal biotin on a linker: ado-ado)

IL16_1, Q14005, sequence (Q14005 210-306): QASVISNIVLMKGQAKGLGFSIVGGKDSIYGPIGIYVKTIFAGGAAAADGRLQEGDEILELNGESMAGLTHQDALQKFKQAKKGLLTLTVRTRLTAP

pKd | Binder
below the threshold | B1
below the threshold | B2

Molecular target: Inadl_3, Q8NI35
Experiment: holdup assay
Set-up: key: below the threshold = too weak to quantify, mostly under pKd 3.1 to 4
Details: plain residues with an end cap or a label only (N-terminal biotin on a linker: ado-ado)

Inadl_3, Q8NI35, sequence (Q8NI35 359-469): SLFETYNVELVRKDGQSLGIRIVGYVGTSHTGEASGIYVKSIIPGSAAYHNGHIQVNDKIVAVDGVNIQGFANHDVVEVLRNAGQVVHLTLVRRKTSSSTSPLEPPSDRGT

pKd | Binder
below the threshold | B1
below the threshold | B2

Molecular target: Inadl_4, Q8NI35
Experiment: holdup assay
Set-up: key: below the threshold = too weak to quantify, mostly under pKd 3.1 to 4
Details: plain residues with an end cap or a label only (N-terminal biotin on a linker: ado-ado)

Inadl_4, Q8NI35, sequence (Q8NI35 547-651): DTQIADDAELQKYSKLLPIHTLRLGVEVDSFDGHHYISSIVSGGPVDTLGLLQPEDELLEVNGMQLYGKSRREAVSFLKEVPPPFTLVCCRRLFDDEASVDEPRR

pKd | Binder
below the threshold | B1
below the threshold | B2

Molecular target: LIMK2, P53671
Experiment: holdup assay
Set-up: key: below the threshold = too weak to quantify, mostly under pKd 3.1 to 4
Details: plain residues with an end cap or a label only (N-terminal biotin on a linker: ado-ado)

LIMK2, P53671, sequence (P53671 143-248): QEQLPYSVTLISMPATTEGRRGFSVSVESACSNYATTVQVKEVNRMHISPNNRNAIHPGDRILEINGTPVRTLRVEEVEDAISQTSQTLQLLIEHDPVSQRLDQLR

pKd | Binder
below the threshold | B1
below the threshold | B2

Molecular target: MAGI2_2, Q86UL8
Experiment: holdup assay
Set-up: key: below the threshold = too weak to quantify, mostly under pKd 3.1 to 4
Details: plain residues with an end cap or a label only (N-terminal biotin on a linker: ado-ado)

MAGI2_2, Q86UL8, sequence (Q86UL8 410-522): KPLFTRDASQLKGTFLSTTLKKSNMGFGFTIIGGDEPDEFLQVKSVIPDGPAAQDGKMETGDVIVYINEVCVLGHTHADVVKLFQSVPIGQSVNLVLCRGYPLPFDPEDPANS

pKd | Binder
below the threshold | B1
below the threshold | B2

Molecular target: MAGI3_2, Q5TCQ9
Experiment: holdup assay
Set-up: key: below the threshold = too weak to quantify, mostly under pKd 3.1 to 4
Details: plain residues with an end cap or a label only (N-terminal biotin on a linker: ado-ado)

MAGI3_2, Q5TCQ9, sequence (Q5TCQ9 398-503): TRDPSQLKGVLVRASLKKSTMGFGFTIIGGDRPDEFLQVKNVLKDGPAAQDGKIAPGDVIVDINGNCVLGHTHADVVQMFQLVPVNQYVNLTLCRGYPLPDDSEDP

pKd | Binder
below the threshold | B1
3.62 | B2

Molecular target: T6, MPDZ_10, O75970
Experiment: holdup assay
Set-up: key: below the threshold = too weak to quantify, mostly under pKd 3.1 to 4
Details: plain residues with an end cap or a label only (N-terminal biotin on a linker: ado-ado)

pKd | Binder
below the threshold | B1
3.57 | B2

Molecular target: T7, MPDZ_12, O75970
Experiment: holdup assay
Set-up: key: below the threshold = too weak to quantify, mostly under pKd 3.1 to 4
Details: plain residues with an end cap or a label only (N-terminal biotin on a linker: ado-ado)

pKd | Binder
below the threshold | B1
3.61 | B2

Molecular target: T8, MPDZ_5, O75970
Experiment: holdup assay
Set-up: key: below the threshold = too weak to quantify, mostly under pKd 3.1 to 4
Details: plain residues with an end cap or a label only (N-terminal biotin on a linker: ado-ado)

pKd | Binder
below the threshold | B1
below the threshold | B2

Molecular target: T9, MPP7, Q5T2T1
Experiment: holdup assay
Set-up: key: below the threshold = too weak to quantify, mostly under pKd 3.1 to 4
Details: plain residues with an end cap or a label only (N-terminal biotin on a linker: ado-ado)

pKd | Binder
below the threshold | B1
below the threshold | B2

Molecular target: PDLIM1, O00151
Experiment: holdup assay
Set-up: key: below the threshold = too weak to quantify, mostly under pKd 3.1 to 4
Details: plain residues with an end cap or a label only (N-terminal biotin on a linker: ado-ado)

PDLIM1, O00151, sequence (O00151 1-87): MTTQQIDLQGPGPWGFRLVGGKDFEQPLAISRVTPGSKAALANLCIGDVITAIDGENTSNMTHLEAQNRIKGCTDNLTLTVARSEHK

pKd | Binder
below the threshold | B1
below the threshold | B2

Molecular target: T10, PDZD2_2, O15018
Experiment: holdup assay
Set-up: key: below the threshold = too weak to quantify, mostly under pKd 3.1 to 4
Details: plain residues with an end cap or a label only (N-terminal biotin on a linker: ado-ado)

pKd | Binder
below the threshold | B1
3.63 | B2

Molecular target: T11, PDZRN3_1, Q9UPQ7
Experiment: holdup assay
Set-up: key: below the threshold = too weak to quantify, mostly under pKd 3.1 to 4
Details: plain residues with an end cap or a label only (N-terminal biotin on a linker: ado-ado)

pKd | Binder
below the threshold | B1
below the threshold | B2

Molecular target: T12, SNTA1, Q13424
Experiment: holdup assay
Set-up: key: below the threshold = too weak to quantify, mostly under pKd 3.1 to 4
Details: plain residues with an end cap or a label only (N-terminal biotin on a linker: ado-ado)

pKd | Binder
below the threshold | B1
below the threshold | B2

Molecular target: TJP1_2, Q07157
Experiment: holdup assay
Set-up: key: below the threshold = too weak to quantify, mostly under pKd 3.1 to 4
Details: plain residues with an end cap or a label only (N-terminal biotin on a linker: ado-ado)

TJP1_2, Q07157, sequence (Q07157 181-274): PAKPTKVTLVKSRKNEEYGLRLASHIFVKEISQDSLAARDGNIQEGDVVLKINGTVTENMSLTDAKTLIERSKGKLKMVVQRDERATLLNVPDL

pKd | Binder
below the threshold | B1
below the threshold | B2

Molecular target: T13, TX1BP3, O14907
Experiment: holdup assay
Set-up: key: below the threshold = too weak to quantify, mostly under pKd 3.1 to 4
Details: plain residues with an end cap or a label only (N-terminal biotin on a linker: ado-ado)

pKd | Binder
below the threshold | B1
below the threshold | B2
